In general, koff refers to the rate constant with which the complex falls apart. Low readings indicate a long-lived complex, high ones a short-lived complex. By kon is commonly meant the rate constant with which the complex forms. A lower kon goes with slower complex formation.

Where two headings read alike, the source gives them in different places.

Among the data in patent publication US20190119362A1 (KANEKA, published 2019) are Ka, koff and kon values, retold here.

What all share (experiment): SPR (Biacore 3000), Fab immobilized on CM5, peptide as analyte, 1:1 fit, 25 C
Background: In SPR one partner is held on a chip, and binding of the other changes the refractive index at the surface.

Assay [1] deals with T1, aTNFa-Fab (Fab fragment of Infliximab) (Chimeric antibody/IgG1κ).
T1 construct: domain: Fab fragment; also called Infliximab Fab; Remicade Fab

For assay [2], the target named is T1, aTNFa-Fab (Fab fragment of Infliximab). The source holds these as a separate data set.
Assay [3] has the same target. This is another data set of the same source.

B1: LB3t-Wild.1d (other)
chain: GPLGSEEVTIKANLIYADGKTQTAEFKGTFEEATAEAYRYADLLAKENGKYTVDVADKGYTLNIKFAG
notes: also called B3 domain
For the molecule B1, in assay [1], the Ka is 100000 M⁻¹, the koff was found to be 0.305 s⁻¹ and the kon stood at 20000 M⁻¹ s⁻¹.

B2: LB4t-Wild.1d (other)
chain: GPLGSEEVTIKANLIYADGKTQTAEFKGTFAEATAEAYRYADLLAKENGKYTADLEDGGYTINIRFAG
notes: also called B4 domain
As for B2, in assay [1], the Ka was 300000 M⁻¹, the koff was 0.239 s⁻¹ and the kon came out at 70000 M⁻¹ s⁻¹.

B3: LB1t-Wild.1d (other)
chain: GPLGSEEVTIKANLIFANGSTQTAEFKGTFEKATSEAYAYADTLKKDNGEYTVDVADKGYTLNIKFAG
notes: also called B1 domain
In assay [1], B3 registered a Ka of 30000 M⁻¹, a koff of 0.481 s⁻¹ and a kon of 10000 M⁻¹ s⁻¹.

B4: LC4t-Wild.1d (other)
chain: GPLGSEEVTIKVNLIFADGKTQTAEFKGTFEEATAEAYRYADLLAKVNGEYTADLEDGGYTINIKFAGK
notes: also called C4 domain
Turning to B4, in assay [2], the Ka is 20000 M⁻¹, the koff was determined as 0.397 s⁻¹ and the kon was 10000 M⁻¹ s⁻¹.

B5: LC1t-Wild.1d (other)
chain: GPLGSEEVTIKANLIFADGSTQNAEFKGTFAKAVSDAYAYADALKKDNGEYTVDVADKGLTLNIKFAGK
notes: also called C1 domain
In assay [2], B5 registered a Ka of 200000 M⁻¹, an off-rate constant (koff) of 0.152 s⁻¹ and a kon of 20000 M⁻¹ s⁻¹.

B6: LB5t-Wild.1d (B5 domain of PpL 312 with deletion of N-terminal region) (other)
chain: GPLGSEQVTIKENIYFEDGTVQTATFKGTFAEATAEAYRYADLLSKEHGKYTADLEDGGYTINIRFAG
Turning to B6, in assay [3], the Ka is 700000 M⁻¹, the koff is 0.215 s⁻¹ and the kon amounted to 150000 M⁻¹ s⁻¹.
